{"source": "the supplement of paper PMC10567573", "parents": {"B1": {"name": "EPB41L3 (parent)", "chain": "SELGDYDPDECGSDYISEFRFAPN"}, "B2": {"name": "ANKRD9 (parent)", "chain": "LLEDMRASEAFHWDERGRAAAYSP"}}, "data": [{"variants_of": "B1", "assay": "protein stability index of a GFP-peptide fusion (GPS, HEK-293T) (PSI 1-6); higher = more stable", "details": "c terminus: a fixed tail appended", "values": [{"variant": "SELGDYDPDECGSDYISEFRFAPQ", "protein stability index": 2.09}, {"variant": "SELGDYDPDECGSDYISEFRFAPR", "protein stability index": 2.44}, {"variant": "SELGDYDPDECGSDYISEFRFAPS", "protein stability index": 1.87}, {"variant": "SELGDYDPDECGSDYISEFRFAPT", "protein stability index": 2.12}, {"variant": "SELGDYDPDECGSDYISEFRFAPV", "protein stability index": 2.55}, {"variant": "SELGDYDPDECGSDYISEFRFAPW", "protein stability index": 2.45}, {"variant": "SELGDYDPDECGSDYISEFRFAPY", "protein stability index": 2.15}]}, {"variants_of": "B2", "assay": "protein stability index of a GFP-peptide fusion (GPS, HEK-293T) (PSI 1-6); higher = more stable", "details": "c terminus: a fixed tail appended", "values": [{"variant": "ALEDMRASEAFHWDERGRAAAYSP", "protein stability index": 3.72}, {"variant": "CLEDMRASEAFHWDERGRAAAYSP", "protein stability index": 3.2}, {"variant": "DLEDMRASEAFHWDERGRAAAYSP", "protein stability index": 4.18}, {"variant": "ELEDMRASEAFHWDERGRAAAYSP", "protein stability index": 4.29}, {"variant": "FLEDMRASEAFHWDERGRAAAYSP", "protein stability index": 3.36}, {"variant": "HLEDMRASEAFHWDERGRAAAYSP", "protein stability index": 4.71}, {"variant": "ILEDMRASEAFHWDERGRAAAYSP", "protein stability index": 2.44}, {"variant": "KLEDMRASEAFHWDERGRAAAYSP", "protein stability index": 3.4}, {"variant": "MLEDMRASEAFHWDERGRAAAYSP", "protein stability index": 2.52}, {"variant": "NLEDMRASEAFHWDERGRAAAYSP", "protein stability index": 3.97}, {"variant": "PLEDMRASEAFHWDERGRAAAYSP", "protein stability index": 4.77}, {"variant": "QLEDMRASEAFHWDERGRAAAYSP", "protein stability index": 4.37}, {"variant": "RLEDMRASEAFHWDERGRAAAYSP", "protein stability index": 3.93}, {"variant": "SLEDMRASEAFHWDERGRAAAYSP", "protein stability index": 4.22}, {"variant": "TLEDMRASEAFHWDERGRAAAYSP", "protein stability index": 4.04}, {"variant": "VLEDMRASEAFHWDERGRAAAYSP", "protein stability index": 2.91}, {"variant": "WLEDMRASEAFHWDERGRAAAYSP", "protein stability index": 3.01}, {"variant": "YLEDMRASEAFHWDERGRAAAYSP", "protein stability index": 3.54}, {"variant": "LAEDMRASEAFHWDERGRAAAYSP", "protein stability index": 3.15}, {"variant": "LCEDMRASEAFHWDERGRAAAYSP", "protein stability index": 4.06}, {"variant": "LDEDMRASEAFHWDERGRAAAYSP", "protein stability index": 3.98}, {"variant": "LEEDMRASEAFHWDERGRAAAYSP", "protein stability index": 4.52}, {"variant": "LFEDMRASEAFHWDERGRAAAYSP", "protein stability index": 2.53}, {"variant": "LGEDMRASEAFHWDERGRAAAYSP", "protein stability index": 3.74}, {"variant": "LHEDMRASEAFHWDERGRAAAYSP", "protein stability index": 4.13}, {"variant": "LIEDMRASEAFHWDERGRAAAYSP", "protein stability index": 4.67}, {"variant": "LKEDMRASEAFHWDERGRAAAYSP", "protein stability index": 3.25}, {"variant": "LMEDMRASEAFHWDERGRAAAYSP", "protein stability index": 2.67}, {"variant": "LNEDMRASEAFHWDERGRAAAYSP", "protein stability index": 3.3}, {"variant": "LPEDMRASEAFHWDERGRAAAYSP", "protein stability index": 4.37}, {"variant": "LQEDMRASEAFHWDERGRAAAYSP", "protein stability index": 3.66}, {"variant": "LREDMRASEAFHWDERGRAAAYSP", "protein stability index": 3.27}, {"variant": "LSEDMRASEAFHWDERGRAAAYSP", "protein stability index": 3.94}, {"variant": "LTEDMRASEAFHWDERGRAAAYSP", "protein stability index": 3.88}, {"variant": "LVEDMRASEAFHWDERGRAAAYSP", "protein stability index": 3.17}, {"variant": "LWEDMRASEAFHWDERGRAAAYSP", "protein stability index": 1.9}, {"variant": "LYEDMRASEAFHWDERGRAAAYSP", "protein stability index": 1.71}, {"variant": "LLADMRASEAFHWDERGRAAAYSP", "protein stability index": 2.72}, {"variant": "LLCDMRASEAFHWDERGRAAAYSP", "protein stability index": 1.51}, {"variant": "LLDDMRASEAFHWDERGRAAAYSP", "protein stability index": 1.92}, {"variant": "LLFDMRASEAFHWDERGRAAAYSP", "protein stability index": 2.08}, {"variant": "LLHDMRASEAFHWDERGRAAAYSP", "protein stability index": 2.19}, {"variant": "LLIDMRASEAFHWDERGRAAAYSP", "protein stability index": 1.85}, {"variant": "LLKDMRASEAFHWDERGRAAAYSP", "protein stability index": 2.49}, {"variant": "LLLDMRASEAFHWDERGRAAAYSP", "protein stability index": 3.26}, {"variant": "LLMDMRASEAFHWDERGRAAAYSP", "protein stability index": 1.15}, {"variant": "LLNDMRASEAFHWDERGRAAAYSP", "protein stability index": 1.32}, {"variant": "LLPDMRASEAFHWDERGRAAAYSP", "protein stability index": 4.09}, {"variant": "LLQDMRASEAFHWDERGRAAAYSP", "protein stability index": 2.38}, {"variant": "LLRDMRASEAFHWDERGRAAAYSP", "protein stability index": 3.42}, {"variant": "LLSDMRASEAFHWDERGRAAAYSP", "protein stability index": 1.43}, {"variant": "LLTDMRASEAFHWDERGRAAAYSP", "protein stability index": 2.31}, {"variant": "LLYDMRASEAFHWDERGRAAAYSP", "protein stability index": 1.55}, {"variant": "LLEAMRASEAFHWDERGRAAAYSP", "protein stability index": 2.36}, {"variant": "LLECMRASEAFHWDERGRAAAYSP", "protein stability index": 2.44}, {"variant": "LLEEMRASEAFHWDERGRAAAYSP", "protein stability index": 2.03}, {"variant": "LLEFMRASEAFHWDERGRAAAYSP", "protein stability index": 2}, {"variant": "LLEGMRASEAFHWDERGRAAAYSP", "protein stability index": 2.52}, {"variant": "LLEHMRASEAFHWDERGRAAAYSP", "protein stability index": 2.69}, {"variant": "LLEIMRASEAFHWDERGRAAAYSP", "protein stability index": 2}, {"variant": "LLEKMRASEAFHWDERGRAAAYSP", "protein stability index": 2.37}, {"variant": "LLELMRASEAFHWDERGRAAAYSP", "protein stability index": 1.64}, {"variant": "LLEMMRASEAFHWDERGRAAAYSP", "protein stability index": 1.44}, {"variant": "LLENMRASEAFHWDERGRAAAYSP", "protein stability index": 2.5}, {"variant": "LLEPMRASEAFHWDERGRAAAYSP", "protein stability index": 3.91}, {"variant": "LLEQMRASEAFHWDERGRAAAYSP", "protein stability index": 2.14}, {"variant": "LLESMRASEAFHWDERGRAAAYSP", "protein stability index": 2.23}, {"variant": "LLETMRASEAFHWDERGRAAAYSP", "protein stability index": 2.62}, {"variant": "LLEVMRASEAFHWDERGRAAAYSP", "protein stability index": 2.19}, {"variant": "LLEWMRASEAFHWDERGRAAAYSP", "protein stability index": 1.52}, {"variant": "LLEYMRASEAFHWDERGRAAAYSP", "protein stability index": 1.9}, {"variant": "LLEDARASEAFHWDERGRAAAYSP", "protein stability index": 3.92}, {"variant": "LLEDERASEAFHWDERGRAAAYSP", "protein stability index": 4.66}, {"variant": "LLEDFRASEAFHWDERGRAAAYSP", "protein stability index": 3.94}, {"variant": "LLEDGRASEAFHWDERGRAAAYSP", "protein stability index": 3.94}, {"variant": "LLEDHRASEAFHWDERGRAAAYSP", "protein stability index": 3.39}, {"variant": "LLEDIRASEAFHWDERGRAAAYSP", "protein stability index": 2.89}, {"variant": "LLEDKRASEAFHWDERGRAAAYSP", "protein stability index": 3.97}, {"variant": "LLEDLRASEAFHWDERGRAAAYSP", "protein stability index": 1.6}, {"variant": "LLEDNRASEAFHWDERGRAAAYSP", "protein stability index": 4.1}, {"variant": "LLEDPRASEAFHWDERGRAAAYSP", "protein stability index": 4.09}, {"variant": "LLEDQRASEAFHWDERGRAAAYSP", "protein stability index": 3.91}, {"variant": "LLEDSRASEAFHWDERGRAAAYSP", "protein stability index": 3.3}, {"variant": "LLEDTRASEAFHWDERGRAAAYSP", "protein stability index": 4.12}, {"variant": "LLEDVRASEAFHWDERGRAAAYSP", "protein stability index": 3.77}, {"variant": "LLEDWRASEAFHWDERGRAAAYSP", "protein stability index": 3.64}, {"variant": "LLEDYRASEAFHWDERGRAAAYSP", "protein stability index": 3.83}]}]}
